Assay results published in IntAct's records for PubMed 29039417.

B1: BBSome complex member BBS1 (Homo sapiens), Q8NFJ9 (parent)
chain: MAAASSSDSDACGAESNEANSKWLDAHYDPMANIHTFSACLALADLHGDGEYKLVVGDLGPGGQQPRLKVLKGPLVMTESPLPALPAAAATFLMEQHEPRTPALALASGPCVYVYKNLRPYFKFSLPQLPPNPLEQDLWNQAKEDRIDPLTLKEMLESIRETAEEPLSIQSLRFLQLELSEMEAFVNQHKSNSIKRQTVITTMTTLKKNLADEDAVSCLVLGTENKELLVLDPEAFTILAKMSLPSVPVFLEVSGQFDVEFRLAAACRNGNIYILRRDSKHPKYCIELSAQPVGLIRVHKVLVVGSTQDSLHGFTHKGKKLWTVQMPAAILTMNLLEQHSRGLQAVMAGLANGEVRIYRDKALLNVIHTPDAVTSLCFGRYGREDNTLIMTTRGGGLIIKILKRTAVFVEGGSEVGPPPAQAMKLNVPRKTRLYVDQTLREREAGTAMHRAFQTDLYLLRLRAARAYLQALESSLSPLSTTAREPLKLHAVVQGLGPTFKLTLHLQNTSTTRPVLGLLVCFLYNEALYSLPRAFFKVPLLVPGLNYPLETFVESLSNKGISDIIKVLVLREGQSAPLLSAHVNMPGSEGLAAA
partner: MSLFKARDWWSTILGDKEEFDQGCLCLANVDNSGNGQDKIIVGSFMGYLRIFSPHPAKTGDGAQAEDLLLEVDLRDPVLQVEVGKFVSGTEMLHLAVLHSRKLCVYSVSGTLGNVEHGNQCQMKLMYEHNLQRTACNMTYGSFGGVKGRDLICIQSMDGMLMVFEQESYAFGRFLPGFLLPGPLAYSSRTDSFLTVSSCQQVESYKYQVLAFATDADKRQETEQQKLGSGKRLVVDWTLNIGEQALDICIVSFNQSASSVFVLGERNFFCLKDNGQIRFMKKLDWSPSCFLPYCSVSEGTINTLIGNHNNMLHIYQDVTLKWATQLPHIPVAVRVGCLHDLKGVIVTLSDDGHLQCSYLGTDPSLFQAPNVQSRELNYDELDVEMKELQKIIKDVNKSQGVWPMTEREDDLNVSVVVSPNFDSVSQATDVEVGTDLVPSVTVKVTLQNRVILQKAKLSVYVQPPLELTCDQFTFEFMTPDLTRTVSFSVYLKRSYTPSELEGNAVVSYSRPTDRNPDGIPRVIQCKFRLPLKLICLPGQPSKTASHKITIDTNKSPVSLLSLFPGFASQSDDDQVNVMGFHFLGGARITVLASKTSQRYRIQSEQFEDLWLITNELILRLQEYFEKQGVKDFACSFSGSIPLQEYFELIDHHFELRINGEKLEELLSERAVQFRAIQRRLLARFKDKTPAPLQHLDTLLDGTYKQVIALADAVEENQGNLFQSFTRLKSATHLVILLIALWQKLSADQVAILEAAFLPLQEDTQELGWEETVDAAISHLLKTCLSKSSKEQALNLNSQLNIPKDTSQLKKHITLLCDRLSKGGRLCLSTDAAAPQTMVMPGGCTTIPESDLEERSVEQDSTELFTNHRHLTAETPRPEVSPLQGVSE
B2: BBSome-interacting protein 1 (Homo sapiens), A8MTZ0 (parent)
chain: MLKAAAKRPELSGKNTISNNSDMAEVKSMFREVLPKQGPLFVEDIMTMVLCKPKLLPLKSLTLEKLEKMHQAAQNTIRQQEMAEKDQRQITH
partner: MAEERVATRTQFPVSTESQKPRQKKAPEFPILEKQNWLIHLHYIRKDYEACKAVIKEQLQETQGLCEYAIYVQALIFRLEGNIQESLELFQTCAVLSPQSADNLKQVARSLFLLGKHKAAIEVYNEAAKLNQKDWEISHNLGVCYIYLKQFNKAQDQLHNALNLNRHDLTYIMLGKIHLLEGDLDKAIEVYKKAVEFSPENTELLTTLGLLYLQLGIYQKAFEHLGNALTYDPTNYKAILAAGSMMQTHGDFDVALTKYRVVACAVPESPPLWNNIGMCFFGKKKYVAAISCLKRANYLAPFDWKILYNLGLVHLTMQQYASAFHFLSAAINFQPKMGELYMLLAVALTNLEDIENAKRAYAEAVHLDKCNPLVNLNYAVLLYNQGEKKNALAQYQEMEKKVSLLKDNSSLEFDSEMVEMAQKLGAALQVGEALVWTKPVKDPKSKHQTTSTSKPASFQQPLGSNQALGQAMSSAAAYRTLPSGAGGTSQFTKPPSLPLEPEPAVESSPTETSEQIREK

Variants of: B1
Settings: with pthb1_human BBS9, Q3SYG4

Variant | effect of a mutation on the interaction
M423K | with no effect
M423E | with no effect
M423A | with no effect
V435E | with no effect
V435L | disrupting interaction strength
V435K | with no effect
V435A | with no effect
R440E | with no effect
R440K | with no effect
R440A | with no effect
L425E | with no effect
L425K | with no effect
L425A | with no effect
L439E | with no effect
L439A | with no effect
L439K | with no effect
R429A | with no effect
R429K | with no effect
R429E | with no effect
Q437E | with no effect
Q437K | with no effect
Q437A | with no effect
A422E | with no effect
A422K | with no effect
G416K | with no effect
G416A | with no effect
G416E | with no effect

Variant | effect of a mutation on the interaction
R442K | with no effect
R442A | with no effect
R442E | with no effect
M448A | with no effect
M448E | with no effect
M448K | with no effect
E414A | with no effect
E414K | with no effect
H449K | with no effect
H449A | with no effect
H449E | with no effect
V415E | with no effect
V415K | with no effect
V415A | with no effect
Q421A | with no effect
Q421E | with no effect
Q421K | with no effect
T438A | with no effect
T438K | with no effect
T438E | with no effect
E443A | with no effect
E443K | with no effect
K430M | disrupting interaction strength
K430E | with no effect
K430A | with no effect
G445K | with no effect
G445A | with no effect

Variant | effect of a mutation on the interaction
G445E | with no effect
P418E | with no effect
P418A | with no effect
P418K | with no effect
R432L | disrupting interaction strength
R432A | with no effect
R432K | with no effect
R432E | with no effect
P417K | with no effect
P417E | with no effect
P417A | with no effect
A447E | with no effect
A447K | with no effect
P428K | with no effect
P428A | with no effect
P428E | with no effect
A420E | with no effect
A420K | with no effect
N426A | with no effect
N426E | with no effect
N426K | with no effect
D436K | with no effect
D436E | with no effect
D436A | disrupting interaction strength
S413E | with no effect
S413A | with no effect
S413K | with no effect

Variant | effect of a mutation on the interaction
E441A | with no effect
E441K | with no effect
Y434E | with no effect
Y434A | with no effect
Y434K | with no effect
V427K | with no effect
V427A | with no effect
V427E | with no effect
T446E | with no effect
T446A | with no effect
T446K | with no effect
A444E | with no effect
A444K | with no effect
P419K | with no effect
P419E | with no effect
P419A | with no effect
L433K | with no effect
L433A | with no effect
L433E | with no effect
T431E | with no effect
T431A | with no effect
T431K | with no effect
K424A | with no effect
K424E | with no effect

Variants of: B2
Settings: with bbs4_human BBS4, Q96RK4

Variant | effect of a mutation on the interaction
A83K | with no effect
A83E | with no effect
R88A | with no effect
R88K | with no effect
R88E | with no effect
H92K | with no effect
H92A | with no effect
H92E | with no effect
E67A | disrupting interaction strength
E67K | with no effect
E67S | disrupting interaction strength
M82E | with no effect
M82A | with no effect
M82K | with no effect
E84K | with no effect
E84A | with no effect
R78A | with no effect
R78E | with no effect
R78K | with no effect
K68A | with no effect
K68E | with no effect
N75E | with no effect
N75A | with no effect
N75K | with no effect
H70K | with no effect
H70A | with no effect

Variant | effect of a mutation on the interaction
H70E | with no effect
H70T | disrupting interaction strength
K65E | with no effect
Q79A | with no effect
Q79K | with no effect
Q79E | with no effect
I77E | with no effect
I77A | with no effect
I77K | with no effect
Q71A | with no effect
Q71K | with no effect
Q71R | disrupting interaction strength
Q71E | with no effect
K85E | with no effect
K85A | with no effect
E81A | with no effect
E81K | with no effect
M69E | with no effect
M69K | with no effect
M69A | with no effect
A72E | with no effect
A72K | with no effect
A72D | disrupting interaction strength
I90A | with no effect
I90E | with no effect
I90K | with no effect

Variant | effect of a mutation on the interaction
Q87E | with no effect
Q87K | with no effect
Q87A | with no effect
Q89K | with no effect
Q89E | with no effect
Q89A | with no effect
L66E | with no effect
L66A | with no effect
L66K | with no effect
T91A | with no effect
T91E | with no effect
T91K | with no effect
Q74E | with no effect
Q74A | with no effect
Q74K | with no effect
A73E | with no effect
A73K | with no effect
D86E | with no effect
D86A | with no effect
D86K | with no effect
Q80E | with no effect
Q80K | with no effect
Q80A | with no effect
T76A | with no effect
T76K | with no effect
T76E | with no effect
